From publication PMC6395731

Key:
Experiment in all cases: EMSA
[1] = system: XRCC1 219-415 (CDB) (Homo sapiens); conditions: EMSA: 5 nM DNA, 12 mM Tris pH 8.0, 100 mM NaCl, 20 mM KCl, 3 mM MgCl2, 1 mM EDTA, 0.1% CHAPS, 10 mM 2-mercaptoethanol, 8.5% glycerol, BSA (0.02 mg/mL), room …
[2] = system: XRCC1 219-633 (Homo sapiens); conditions: EMSA: 5 nM DNA, 12 mM Tris pH 8.0, 100 mM NaCl, 20 mM KCl, 3 mM MgCl2, 1 mM EDTA, 0.1% CHAPS, 10 mM 2-mercaptoethanol, 8.5% glycerol, BSA (0.02 mg/mL), room …
[3] = system: XRCC1 219-633 P1/3-YFP-NLS (Homo sapiens); conditions: 2 uM protein; EMSA: 5 nM DNA, 12 mM Tris pH 8.0, 100 mM NaCl, 20 mM KCl, 3 mM MgCl2, 1 mM EDTA, 0.1% CHAPS, 10 mM 2-mercaptoethanol, 8.5% glycerol, BSA (0.02 mg/mL), room …
[4] = system: XRCC1 full length (Homo sapiens); conditions: EMSA: 5 nM DNA, 12 mM Tris pH 8.0, 100 mM NaCl, 20 mM KCl, 3 mM MgCl2, 1 mM EDTA, 0.1% CHAPS, 10 mM 2-mercaptoethanol, 8.5% glycerol, BSA (0.02 mg/mL), room …

Substance: 39 bp duplex
- Kd [1]: 670 nM
- Kd [2]: 700 nM
- binding signal (% of wild type) [3]: 6
- Kd [4]: 620 nM
